From patent US20150361464A1, “METHODS, REAGENTS AND CELLS FOR BIOSYNTHESIZING COMPOUNDS” (INVISTA North America S.á r.l., priority 2014, published 2015)

Assays:
[1] = ω-transaminase enzyme activity assay, reverse direction (5-aminopentanoate to glutarate semialdehyde), cell free extract; assay type: biochemical; settings: 10 mM 5-aminopentanoate, 10 mM pyruvate, pH 7.5, 25° C., 4 hours; against the empty vector control; FIG. 15
Method: (§1) A nucleotide sequence encoding an N-terminal His-tag was added to the genes from Chromobacterium violaceum and Rhodobacter sphaeroides encoding the ω-transaminases of SEQ ID NOs: 8 and 10 respectively (see FIG. 10) such that N-terminal HIS tagged ω-transaminases could be produced. Each of the resulting modified genes was cloned into a pET21a expression vector under control of the T7 promoter and each expression vector was transformed into a BL21[DE3] E. coli host. The resulting recombinant E. coli strains were cultivated at 37° C. in a 250 mL shake flask culture containing 50 mL LB media and antibiotic selection pressure, with shaking at 230 rpm. Each culture was induced overnight at 16° C. using 1 mM IPTG.
(§2) The pellet from each induced shake flask culture was harvested via centrifugation. Each pellet was resuspended and lysed via sonication. The cell debris was separated from the supernatant via centrifugation and the cell free extract was used immediately in enzyme activity assays.
Enzyme activity assays in the reverse direction (i.e., 5-aminopentanoate to glutarate semialdehyde) were performed in a buffer composed of a final concentration of 50 mM HEPES buffer (pH=7.5), 10 mM 5-aminopentanoate, 10 mM pyruvate and 100 μM pyridoxyl 5′ phosphate. […] The formation of L-alanine from pyruvate was quantified via RP-HPLC.

[2] = ω-transaminase enzyme activity assay, forward direction (glutarate semialdehyde to 5-aminopentanoate), cell free extract; assay type: biochemical; settings: conclusion from reverse and forward direction assays
Method: as §1, §2
Enzyme activity in the forward direction (i.e., glutarate semialdehyde to 5-aminopentanoate) was confirmed for the transaminase of SEQ ID NO: 10. Enzyme activity assays were performed in a buffer composed of a final concentration of 50 mM HEPES buffer (pH=7.5), 10 mM glutarate semialdehyde, 10 mM L-alanine and 100 μM pyridoxyl 5′ phosphate. Each enzyme activity assay reaction was initiated by adding a cell free extract of the ω-transaminase gene product or the empty vector control to the assay buffer containing the glutarate semialdehyde and incubated at 25° C. for 4 hours, with shaking at 250 rpm. The formation of pyruvate was quantified via RP-HPLC.

B1: SEQ ID NO: 8: Chromobacterium violaceum ω-transaminase, N-terminal HIS tagged, cell free extract (protein, listed as Chromobacterium violaceum)
chain: MQKQRTTSQWRELDAAHHLHPFTDTASLNQAGARVMTRGEGVYLWDSEGNKIIDGMAGLWCVNVGYGRKDFAEAARRQMEELPFYNTFFKTTHPAVVELSSLLAEVTPAGFDRVFYTNSGSESVDTMIRMVRRYWDVQGKPEKKTLIGRWNGYHGSTIGGASLGGMKYMHEQGDLPIPGMAHIEQPWWYKHGKDMTPDEFGVVAARWLEEKILEIGADKVAAFVGEPIQGAGGVIVPPATYWPEIERICRKYDVLLVADEVICGFGRTGEWFGHQHFGFQPDLFTAAKGLSSGYLPIGAVFVGKRVAEGLIAGGDFNHGFTYSGHPVCAAVAHANVAALRDEGIVQRVKDDIGPYMQKRWRETFSRFEHVDDVRGVGMVQAFTLVKNKAKRELFPDFGEIGTLCRDIFFRNNLIMRACGDHIVSAPPLVMTRAEVDEMLAVAERCLEEFEQTLKARGLA
modifications: N-terminal His tag
notes: Chromobacterium violaceum ω-transaminase, N-terminal HIS tagged, cell free extract
acceptance of 5-aminopentanoate as substrate (formation of L-alanine from pyruvate, RP-HPLC) [1]: accepted 5-aminopentanoate as substrate | acceptance of glutarate semialdehyde as substrate and synthesis of 5-aminopentanoate, concluded from reversibility of the ω-transaminase activity [2]: accepted glutarate semialdehyde as substrate and synthesized 5-aminopentanoate
